# Measurements published in PMC12355267, “Human Helicase DDX5 is Hijacked by SARS-CoV‑2 Nsp13 Helicase to Enhance RNA Unwinding” (ACS Omega, 2025).
# B1: DDX5ΔC (1–484) (domain or fragment, human, UniProt P17844 1-484, looked up)
# chain: MSGYSSDRDRGRDRGFGAPRFGGSRAGPLSGKKFGNPGEKLVKKKWNLDELPKFEKNFYQEHPDLARRTAQEVETYRRSKEITVRGHNCPKPVLNFYEANFPANVMDVIARQNFTEPTAIQAQGWPVALSGLDMVGVAQTGSGKTLSYLLPAIVHINHQPFLERGDGPICLVLAPTRELAQQVQQVAAEYCRACRLKSTCIYGGAPKGPQIRDLERGVEICIATPGRLIDFLECGKTNLRRTTYLVLDEADRMLDMGFEPQIRKIVDQIRPDRQTLMWSATWPKEVRQLAEDFLKDYIHINIGALELSANHNILQIVDVCHDVEKDEKLIRLMEEIMSEKENKTIVFVETKRRCDELTRKMRRDGWPAMGIHGDKSQQERDWVLNEFKHGKAPILIATDVASRGLDVEDVKFVINYDYPNSSEDYIHRIGRTARSTKTGTAYTFFTPNNIKQVSDLISVLREANQAINPKLLQLVEDRGSGRSR
# notes: human DDX5 without the flexible C-terminal end, residues 1-484; also called C-terminal truncated form of DDX5; source: E. coli (gene optimized for E. coli expression, pETM-13), purified
# Target: T1, SARS-CoV-2 Nsp13 helicase (SARS-CoV-2, UniProt P0DTD1 5325-5925)
# T1 construct: also called Nsp13 helicase of SARS-CoV-2
# Experiment: BLI
# Settings: both partners purified
binder,measurement,value
B1,binding result,binds
